The text below walks through data of the supplement of paper PMC11246515.

± gives the standard deviation of the averaged measurements.

A short description of this series: total protein half-life in vivo (active degradation + dilution); higher = more stable protein.
The mark [1] stands for this setting: E. coli NCM3722 delta-lon, growth: N-lim chemostat, doubling time 6 h.
[2] abbreviates: E. coli NCM3722 delta-clpP delta-lon delta-hslV, growth: N-lim chemostat, doubling time 6 h.
[3] abbreviates: E. coli NCM3722 delta-smpB, growth: N-lim chemostat, doubling time 6 h.
[4] abbreviates: wild type E. coli NCM3722, growth: C-lim chemostat, doubling time 3 h.
Where [5] appears, read: wild type E. coli NCM3722, growth: C-lim chemostat, doubling time 6 h.
The mark [6] stands for this setting: wild type E. coli NCM3722, growth: C-lim chemostat, doubling time 12 h.
[7] abbreviates: wild type E. coli NCM3722, growth: N-lim chemostat, doubling time 12 h.
Setting [8] is: wild type E. coli NCM3722, growth: P-lim chemostat, doubling time 12 h.
Where [9] appears, read: E. coli NCM3722 delta-clpP, growth: N-lim chemostat, doubling time 6 h.
Where [10] appears, read: E. coli NCM3722 delta-hslV, growth: N-lim chemostat, doubling time 6 h.
Where [11] appears, read: wild type E. coli NCM3722, growth: N-lim chemostat, doubling time 6 h.
[12] abbreviates: wild type E. coli NCM3722, growth: P-lim chemostat, doubling time 6 h.

For “MIEQFFRPDSVEQALELKRRYQDEAVWFAGGSKLNATPTRTDKKIAISLQDLELDWVDWDNGALRIGAMSRLQPLRDARFIPAALREALGFVYSRHVRNQSTIGGEIAARQEESVLLPVLLALDAELVFGNGETLSIEDYLACPCDRLLTEIIIKDPYRTCATRKISRSQAGLTVVTAAVAMTDHDGMRIALDGVASKALRLHDVEKQNLEGNALEQAVANAIFPQEDLRGSVAYKRYITGVLVADLYADCQQAGEEAV”, the “total protein half-life in vivo” value under setting [1] worked out at 0.974 h.
Regarding “MGSPSLYSARKTTLALAVALSFAWQAPVFAHGGEAHMVPMDKTLKEFGADVQWDDYAQLFTLIKDGAYVKVKPGAQTAIVNGQPLALQVPVVMKDNKAWVSDTFINDVFQSGLDQTFQVEKRPHPLNALTADEIKQAVEIVKASADFKPNTRFTEISLLPPDKEAVWAFALENKPVDQPRKADVIMLDGKHIIEAVVDLQNNKLLSWQPIKDAHGMVLLDDFASVQNIINNSEEFAAAVKKRGITDAKKVITTPLTVGYFDGKDGLKQDARLLKVISYLDVGDGNYWAHPIENLVAVVDLEQKKIVKIEEGPVVPVPMTARPFDGRDRVAPAVKPMQIIEPEGKNYTITGDMIHWRNWDFHLSMNSRVGPMISTVTYNDNGTKRKVMYEGSLGGMIVPYGDPDIGWYFKAYLDSGDYGMGTLTSPIARGKDAPSNAVLLNETIADYTGVPMEIPRAIAVFERYAGPEYKHQEMGQPNVSTERRELVVRWISTVGNYDYIFDWIFHENGTIGIDAGATGIEAVKGVKAKTMHDETAKDDTRYGTLIDHNIVGTTHQHIYNFRLDLDVDGENNSLVAMDPVVKPNTAGGPRTSTMQVNQYNIGNEQDAAQKFDPGTIRLLSNPNKENRMGNPVSYQIIPYAGGTHPVAKGAQFAPDEWIYHRLSFMDKQLWVTRYHPGERFPEGKYPNRSTHDTGLGQYSKDNESLDNTDAVVWMTTGTTHVARAEEWPIMPTEWVHTLLKPWNFFDETPTLGALKKDK”, the “total protein half-life in vivo” value is 4.75 h under setting [2]; 5.04 ± 0.69 h under setting [3]; 2.69 h under setting [4]; 6.4 ± 0.067 h under setting [5]; 6.83 h under setting [6]; 11.8 h under setting [7]. The “total protein half-life in vivo” value under setting [8] was 11.1 ± 0.71 h.
As for “MKSRAAVAFAPGKPLEIVEIDVAPPKKGEVLIKVTHTGVCHTDAFTLSGDDPEGVFPVVLGHEGAGVVVEVGEGVTSVKPGDHVIPLYTAECGECEFCRSGKTNLCVAVRETQGKGLMPDGTTRFSYNGQPLYHYMGCSTFSEYTVVAEVSLAKINPEANHEHVCLLGCGVTTGIGAVHNTAKVQPGDSVAVFGLGAIGLAVVQGARQAKAGRIIAIDTNPKKFDLARRFGATDCINPNDYDKPIKDVLLDINKWGIDHTFECIGNVNVMRAALESAHRGWGQSVIIGVAVAGQEISTRPFQLVTGRVWKGSAFGGVKGRSQLPGMVEDAMKGDIDLEPFVTHTMSLDEINDAFDLMHEGKSIRTVIRY”, the “total protein half-life in vivo” value turned out to be 5.33 ± 0.98 h under setting [2]; 4.73 ± 0.68 h under setting [9]; 4.43 ± 0.28 h under setting [10]; 4.95 ± 0.45 h under setting [1]; 4.24 ± 0.45 h under setting [3]; 2.68 ± 0.26 h under setting [4]. Besides, the “total protein half-life in vivo” value by setting is: under setting [5], 5.87 ± 0.69 h; under setting [6], 10.1 ± 1 h; under setting [11], 4.1 ± 0.47 h; under setting [7], 6.819 ± 0.021 h; under setting [12], 5.6 ± 0.19 h; under setting [8], 11.4 ± 0.52 h.
Take “MAKTLYEKLFDAHVVYEAENETPLLYIDRHLVHEVTSPQAFDGLRAHGRPVRQPGKTFATMDHNVSTQTKDINACGEMARIQMQELIKNCKEFGVELYDLNHPYQGIVHVMGPEQGVTLPGMTIVCGDSHTATHGAFGALAFGIGTSEVEHVLATQTLKQGRAKTMKIEVQGKAAPGITAKDIVLAIIGKTGSAGGTGHVVEFCGEAIRDLSMEGRMTLCNMAIEMGAKAGLVAPDETTFNYVKGRLHAPKGKDFDDAVAYWKTLQTDEGATFDTVVTLQAEEISPQVTWGTNPGQVISVNDNIPDPASFADPVERASAEKALAYMGLKPGIPLTEVAIDKVFIGSCTNSRIEDLRAAAEIAKGRKVAPGVQALVVPGSGPVKAQAEAEGLDKIFIEAGFEWRLPGCSMCLAMNNDRLNPGERCASTSNRNFEGRQGRGGRTHLVSPAMAAAAAVTGHFADIRNIK [P0A6A6]”: the “total protein half-life in vivo” value is 4.76 ± 0.36 h under setting [2]; 1.53 ± 0.022 h under setting [9]; 2.72 ± 0.34 h under setting [10]; 3.63 ± 0.16 h under setting [1]; 2.28 ± 0.034 h under setting [3]; 1.877 ± 0.017 h under setting [4]. Moreover, the “total protein half-life in vivo” value runs as follows: under setting [5], 3.17 ± 0.04 h; under setting [6], 3.71 ± 0.57 h; under setting [11], 2.9 ± 0.39 h; under setting [7], 3.91 ± 0.068 h; under setting [12], 2.32 ± 0.4 h; under setting [8], 5.41 ± 0.32 h.
For the sequence “MSHQLTFADSEFSSKRRQTRKEIFLSRMEQILPWQNMVEVIEPFYPKAGNGRRPYPLETMLRIHCMQHWYNLSDGAMEDALYEIASMRLFARLSLDSALPDRTTIMNFRHLLEQHQLARQLFKTINRWLAEAGVMMTQGTLVDATIIEAPSSTKNKEQQRDPEMHQTKKGNQWHFGMKAHIGVDAKSGLTHSLVTTAANEHDLNQLGNLLHGEEQFVSADAGYQGAPQREELAEVDVDWLIAERPGKVRTLKQHPRKNKTAINIEYMKASIRARVEHPFRIIKRQFGFVKARYKGLLKNDNQLAMLFTLANLFRADQMIRQWERSH [P0CE51]”, the “total protein half-life in vivo” value by setting is: under setting [2], 3.8 ± 0.34 h; under setting [3], 0.495 h; under setting [4], greater than 4 h; under setting [5], 0.676 h; under setting [6], 3.18 h; under setting [11], 0.532 h. For the same sequence, the “total protein half-life in vivo” value runs as follows: under setting [12], 0.426 h; under setting [8], 0.648 h.
Turning to “MLRHITFTVFITTSMNTLATGMVPETSVLLVDEKRGEASINIKNTDDHPSLLYTTIVDLPESNKSIRLIPTQPVIRVEAGQVQQVRFLLQATVPLQSEELKRVTFEGIPPKDDKSSRVTVSIRQDLPVLIHPASLPEERETWKFLEWRKNGDQIEISNPSNYVVRMTLQFKTLPSGKTGAINKTYFLPHTSTTTALTNATDTKVEFYPASRYGYRGNKYVTDLK”, the “total protein half-life in vivo” value under setting [12] is 4.81 h.
With “MADKELKFLVVDDFSTMRRIVRNLLKELGFNNVEEAEDGVDALNKLQAGGYGFVISDWNMPNMDGLELLKTIRADGAMSALPVLMVTAEAKKENIIAAAQAGASGYVVKPFTAATLEEKLNKIFEKLGM [P0AE67]”, the “total protein half-life in vivo” value came to 4.52 ± 0.43 h under setting [2]; 4.01 h under setting [9]; 3.69 ± 0.95 h under setting [10]; 5.08 ± 0.6 h under setting [1]; 4.41 h under setting [3]; 2.33 ± 0.22 h under setting [4]. Also, the “total protein half-life in vivo” value is, setting by setting: under setting [5], 4.08 ± 0.41 h; under setting [6], 5.96 ± 0.14 h; under setting [11], 3.82 ± 0.84 h; under setting [7], 5.61 ± 0.14 h; under setting [12], 3.91 h; under setting [8], 6.33 ± 0.44 h.
Consider “MVTINTESALTPRSLRDTRRMNMFVSVAAAVAGLLFGLDIGVIAGALPFITDHFVLTSRLQEWVVSSMMLGAAIGALFNGWLSFRLGRKYSLMAGAILFVLGSIGSAFATSVEMLIAARVVLGIAVGIASYTAPLYLSEMASENVRGKMISMYQLMVTLGIVLAFLSDTAFSYSGNWRAMLGVLALPAVLLIILVVFLPNSPRWLAEKGRHIEAEEVLRMLRDTSEKAREELNEIRESLKLKQGGWALFKINRNVRRAVFLGMLLQAMQQFTGMNIIMYYAPRIFKMAGFTTTEQQMIATLVVGLTFMFATFIAVFTVDKAGRKPALKIGFSVMALGTLVLGYCLMQFDNGTASSGLSWLSVGMTMMCIAGYAMSAAPVVWILCSEIQPLKCRDFGITCSTTTNWVSNMIIGATFLTLLDSIGAAGTFWLYTALNIAFVGITFWLIPETKNVTLEHIERKLMAGEKLRNIGV [P0AE24]”, for which the “total protein half-life in vivo” value under setting [7] came out at 9.72 h.
